Results as given in paper PMC7205571 (Structure (London, England : 1993), 2020).

Tests used:
hRpn13 Pru (1–150) = hRpn13 Pru (1–150) (human, UniProt Q16186 1-150, 13C-labelled); assay: NMR structure
monoubiquitin = monoubiquitin (UniProt P0CG48 1-76); assay: NMR 13C-half-filtered NOESY

B1: hRpn2 (940–953) (peptide, UniProt Q99460 940-953, looked up)
chain: QEPEPPEPFEYIDD
binding result (hRpn13 Pru (1–150)): binds

B2: hRpn2-bound hRpn13 (hRpn13 Pru:hRpn2 (940–953) complex) (complex, human)
chain 1: MTTSGALFPSLVPGSRGASNKYLVEFRAGKMSLKGTTVTPDKRKGLVYIQQTDDSLIHFCWKDRTSGNVEDDLIIFPDDCEFKRVPQCPSGRVYVLKFKAGSKRLFFWMQEPKTDQDEEHCRKVNEYLNNPPMPGALGASGSSGHELSAL
chain 2: QEPEPPEPFEYIDD
modifications: 13C-labelled
binding result (monoubiquitin): binds
